Source: PMC11316641 (Cell, 2024)

What was measured:
[1] = target: WDR11-FAM91A1 complex (human) (UniProt Q658Y4); test: BLI
[2] = target: the molecule itself; test: SEC-MALS

Chain of WDR11-FAM91A1 complex (human) (Q658Y4 whole entry, one chain of several): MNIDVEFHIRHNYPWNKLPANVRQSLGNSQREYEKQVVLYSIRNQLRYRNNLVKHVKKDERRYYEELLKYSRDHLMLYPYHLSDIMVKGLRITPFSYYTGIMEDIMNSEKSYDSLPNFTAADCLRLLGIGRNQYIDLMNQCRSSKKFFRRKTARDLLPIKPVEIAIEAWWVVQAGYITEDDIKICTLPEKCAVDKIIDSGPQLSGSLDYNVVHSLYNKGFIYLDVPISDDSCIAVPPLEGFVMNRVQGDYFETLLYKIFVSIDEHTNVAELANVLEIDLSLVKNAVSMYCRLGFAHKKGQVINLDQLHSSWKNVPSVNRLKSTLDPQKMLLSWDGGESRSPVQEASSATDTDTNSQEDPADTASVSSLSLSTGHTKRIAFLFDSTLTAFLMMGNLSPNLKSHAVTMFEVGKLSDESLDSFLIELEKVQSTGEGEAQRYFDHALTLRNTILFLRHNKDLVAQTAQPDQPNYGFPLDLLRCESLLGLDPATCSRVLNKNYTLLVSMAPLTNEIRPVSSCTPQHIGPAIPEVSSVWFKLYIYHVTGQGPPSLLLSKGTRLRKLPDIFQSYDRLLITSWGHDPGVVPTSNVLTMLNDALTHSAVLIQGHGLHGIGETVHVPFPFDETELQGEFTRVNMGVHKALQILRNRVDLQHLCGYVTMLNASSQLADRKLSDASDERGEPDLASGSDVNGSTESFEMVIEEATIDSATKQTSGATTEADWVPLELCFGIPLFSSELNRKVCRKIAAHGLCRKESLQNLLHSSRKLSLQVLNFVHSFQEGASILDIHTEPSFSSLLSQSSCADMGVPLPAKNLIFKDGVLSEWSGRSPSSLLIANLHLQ

Kd [1] [µM]	Molecule	stoichiometry N [2]
20.8	CI-MPR AC1-WT peptide	–
–	WDR11 (natural protein, human) MLPYTVNFKVSARTLTGALNAHNKAAVDWGWQGLIAYGCHSLVVVIDSITAQTLQVLEKHKADVVKVKWARENYHHNIGSPYCLRLASADVNGKIIVWDVAAGVAQCEIQEHAKPIQDVQWLWNQDASRDLLLAIHPPNYIVLWNADTGTKLWKKSYADNILSFSFDPFDPSHLTLLTSEGIVFISDFSPSKPPSGPGKKVYISSPHSSPAHNKLATATGAKKALNKVKILITQEKPSAEFITLNDCLQLAYLPSKRNHMLLLYPREILILDLEVNQTVGVIAIERTGVPFLQVIPCFQRDGLFCLHENGCITLRVRRSYNNIFTTSNEEPDPDPVQELTYDLRSQCDAIRVTKTVRPFSMVCCPVNENAAALVVSDGRVMIWELKSAVCNRNSRNSSSGVSPLYSPVSFCGIPVGVLQNKLPDLSLDNMIGQSAIAGEEHPRGSILREVHLKFLLTGLLSGLPAPQFAIRMCPPLTTKNIKMYQPLLAVGTSNGSVLVYHLTSGLLHKELSIHSCEVKGIEWTSLTSFLSFATSTPNNMGLVRNELQLVDLPTGRSIAFRGERGNDESAIEMIKVSHLKQYLAVVFRDKPLELWDVRTCTLLREMSKNFPTITALEWSPSHNLKSLRKKQLATREAMARQTVVSDTELSIVESSVISLLQEAESKSELSQNISAREHFVFTDIDGQVYHLTVEGNSVKDSARIPPDGSMGSITCIAWKGDTLVLGDMDGNLNFWDLKGRVSRGIPTHRSWVRKIRFAPGKGNQKLIAMYNDGAEVWDTKEVQMVSSLRSGRNVTFRILDVDWCTSDKVILASDDGCIRVLEMSMKSACFRMDEQELTEPVWCPYLLVPRASLALKAFLLHQPWNGQYSLDISHVDYPENEEIKNLLQEQLNSLSNDIKKLLLDPEFTLLQRCLLVSRLYGDESELHFWTVAAHYLHSLSQEKSASTTAPKEAAPRDKLSNPLDICYDVLCENAYFQKFQLERVNLQEVKRSTYDHTRKCTDQLLLLGQTDRAVQLLLETSADNQHYYCDSLKACLVTTVTSSGPSQSTIKLVATNMIANGKLAEGVQLLCLIDKAADACRYLQTYGEWNRAAWLAKVRLNPEECADVLRRWVDHLCSPQVNQKSKALLVLLSLGCFFSVAETLHSMRYFDRAALFVEACLKYGAFEVTEDTEKLITAIYADYARSLKNLGFKQGAVLFASKAGAAGKDLLNELESPKEEPIEE	2
